Measured values: US20250236657A1 (TOSOH, published 2025)

Experiments:
[1] = target: T1, AAV2 H271F (adeno-associated virus serotype 2 (AAV2), UniProt P03135 1-735); experiment: affinity HPLC on AVR11a column, pH gradient 6.0 to 2.0; no elution peak, not adsorbed and passed through
T1 construct: Recombinant AAV2 vector particles in filtered cell lysate

[2] = target: T2, AAV2 H271Q (adeno-associated virus serotype 2 (AAV2), UniProt P03135 1-735); experiment: as above
T2 construct: Recombinant AAV2 vector particles in filtered cell lysate

[3] = target: T3, AAV2 G383A (adeno-associated virus serotype 2 (AAV2), UniProt P03135 1-735); experiment: as above
T3 construct: Recombinant AAV2 vector particles in filtered cell lysate

[4] = target: T4, AAV2 H271T (adeno-associated virus serotype 2 (AAV2), UniProt P03135 1-735); experiment: as above
T4 construct: Recombinant AAV2 vector particles in filtered cell lysate

[5] = target: T5, AAV2 H271A (adeno-associated virus serotype 2 (AAV2), UniProt P03135 1-735); experiment: as above
T5 construct: Recombinant AAV2 vector particles in filtered cell lysate

[6] = target: T6, AAV2 D529A (adeno-associated virus serotype 2 (AAV2), UniProt P03135 1-735); experiment: as above
T6 construct: Recombinant AAV2 vector particles in filtered cell lysate

[7] = target: T7, AAV2 T503S (adeno-associated virus serotype 2 (AAV2), UniProt P03135 1-735); experiment: affinity HPLC, AVR11a immobilization gel, linear pH gradient 6.0 to 2.0, AAV2 peak top
T7 construct: Recombinant AAV2 vector particles in filtered cell lysate

[8] = target: T8, AAV2 R471A (adeno-associated virus serotype 2 (AAV2), UniProt P03135 1-735); experiment: as above
T8 construct: Recombinant AAV2 vector particles in filtered cell lysate

[9] = target: T9, AAV2 D528A (adeno-associated virus serotype 2 (AAV2), UniProt P03135 1-735); experiment: as above
T9 construct: Recombinant AAV2 vector particles in filtered cell lysate

[10] = target: T10, AAV2 N382A (adeno-associated virus serotype 2 (AAV2), UniProt P03135 1-735); experiment: as above
T10 construct: Recombinant AAV2 vector particles in filtered cell lysate

[11] = target: T11, AAV2 Q385A (adeno-associated virus serotype 2 (AAV2), UniProt P03135 1-735); experiment: as above
T11 construct: Recombinant AAV2 vector particles in filtered cell lysate

[12] = target: T12, AAV2 Q263A (adeno-associated virus serotype 2 (AAV2), UniProt P03135 1-735); experiment: as above
T12 construct: Recombinant AAV2 vector particles in filtered cell lysate

[13] = target: T13, AAV2 S264A (adeno-associated virus serotype 2 (AAV2), UniProt P03135 1-735); experiment: as above
T13 construct: Recombinant AAV2 vector particles in filtered cell lysate

[14] = target: T14, AAV2 S267A (adeno-associated virus serotype 2 (AAV2), UniProt P03135 1-735); experiment: as above
T14 construct: Recombinant AAV2 vector particles in filtered cell lysate

[15] = target: T15, AAV2 D529E (adeno-associated virus serotype 2 (AAV2), UniProt P03135 1-735); experiment: as above
T15 construct: Recombinant AAV2 vector particles in filtered cell lysate

[16] = target: T16, AAV2 (wild type), serotype 2 AAV with capsid region VP1 of SEQ ID NO: 99 (adeno-associated virus serotype 2 (AAV2), UniProt P03135 1-735); experiment: as above
T16 construct: Recombinant AAV2 vector particles (EGFP genome) in filtered cell lysate; the capsid is assembled from VP1, VP2 and VP3

[17] = target: T17, AAV2 S384A (adeno-associated virus serotype 2 (AAV2), UniProt P03135 1-735); experiment: as above
T17 construct: Recombinant AAV2 vector particles in filtered cell lysate

[18] = target: T18, AAV2 S267T (adeno-associated virus serotype 2 (AAV2), UniProt P03135 1-735); experiment: as above
T18 construct: Recombinant AAV2 vector particles in filtered cell lysate

[19] = target: T19, AAV2 E499A (adeno-associated virus serotype 2 (AAV2), UniProt P03135 1-735); experiment: as above
T19 construct: Recombinant AAV2 vector particles in filtered cell lysate

B1: AAV-binding protein AVR11a with cysteine tag (SEQ ID NO: 100), immobilised as AVR11a immobilization gel (receptor)
chain: MGSAGESDQITLPKNEVQLNVYVLQEPPKGETSTYDWQLITHPRDYSGEMEGEHSQILKLSNLTPGLYEFKAVVEGQNAHSEGYVNVTVEPEPRKNRPPIAIVSPQFQEISLPTTSTVIDGSQSTDDDKIVQYHWEELKGPLREEKISEDTAILKLSKLVPGNYTFRLTVVDSDGATDSTTANLTVNKAVDHHHHHHCRNDTCG
modifications: immobilised on a TOYOPEARL carrier with iodoacetamide groups; cysteine tag sequence serving as immobilization tag at positions 220-226
notes: KIAA0319L PKD1 and PKD2 with 11 substitutions (AVR10s plus Ala330Val); also called AVR11a column
[1]
  binding result: no binding
[2]
  binding result: no binding
[3]
  binding result: no binding
[4]
  binding result: no binding
[5]
  binding result: no binding
[6]
  binding result: no binding
[7]
  AVR11a column elution time: 55.2 min
[8]
  AVR11a column elution time: 60.3 min
[9]
  AVR11a column elution time: 55.5 min
[10]
  AVR11a column elution time: 53.5 min
[11]
  AVR11a column elution time: 57.7 min
[12]
  AVR11a column elution time: 60.2 min
[13]
  AVR11a column elution time: 59.6 min
[14]
  AVR11a column elution time: 59.4 min
[15]
  AVR11a column elution time: 54.5 min
[16]
  AVR11a column elution time: 59.8 min
[17]
  AVR11a column elution time: 58.6 min
[18]
  AVR11a column elution time: 59.2 min
[19]
  AVR11a column elution time: 59.3 min
